Experimental data from US20230265151A1, “GIP/GLP1 CO-AGONIST COMPOUNDS” (priority 2020, published 2023).

What was measured:
Assay in all cases: cell-based or functional assay
human GIP receptor = target: T1, human GIP receptor (human, UniProt P48546 22-466)
T1 sequence (looked up): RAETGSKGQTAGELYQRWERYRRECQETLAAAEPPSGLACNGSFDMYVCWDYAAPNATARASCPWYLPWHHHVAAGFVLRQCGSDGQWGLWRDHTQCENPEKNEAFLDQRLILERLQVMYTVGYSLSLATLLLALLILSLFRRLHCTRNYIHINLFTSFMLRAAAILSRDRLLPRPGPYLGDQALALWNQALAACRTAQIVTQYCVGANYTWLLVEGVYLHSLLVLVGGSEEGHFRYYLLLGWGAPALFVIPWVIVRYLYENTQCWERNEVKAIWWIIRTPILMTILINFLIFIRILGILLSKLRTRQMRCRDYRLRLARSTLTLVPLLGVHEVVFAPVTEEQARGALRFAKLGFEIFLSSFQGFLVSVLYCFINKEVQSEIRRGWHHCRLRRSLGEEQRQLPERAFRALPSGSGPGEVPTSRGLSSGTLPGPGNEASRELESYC

human glucagon receptor = human glucagon receptor (human, UniProt P47871 26-477)
human GLP-1 receptor = human GLP-1 receptor (human, UniProt P43220 24-463)

Binder	cAMP EC50 (1.0% HSA) (human GIP receptor) [nM]	cAMP Emax (1.0% HSA) (human GIP receptor) [%]	cAMP EC50 (1.0% HSA) (human glucagon receptor) [µM]	cAMP EC50 (1.0% HSA) (human GLP-1 receptor) [nM]
YXEGTXTSDXSIXLDXKAQXEFIXXLIEGGPSSGAPPPSK (Y-Aib-EGT-αMeF(2F)-TSD-OMeY-SI-αMeL-LD-Orn-K((2-[2-(2-Amino-ethoxy)-ethoxy]-acetyl)2-(γ-Glu)-CO-(CH2)12-CO2H)AQ-Aib-EFI-(D-Glu)-αMeY-LIEGGPSSGAPPPSK((2-[2-(2-Amino-ethoxy)-ethoxy]-acetyl)2-(γ-Glu)-CO-(CH2)12-CO2H)-NH2) [Example 261]	2.28	75.7	> 9.95	15.6
YXEGTXTSDXSIXLDXIAQXKFIXXLIEGGPSSGAPPPSK (Y-Aib-EGT-αMeF(2F)-TSD-OMeY-SI-αMeL-LD-Orn-IAQ-Aib-K((2-[2-(2-Amino-ethoxy)-ethoxy]-acetyl)2-(γ-Glu)-CO-(CH2)12-CO2H)FI-(D-Glu)-αMeY-LIEGGPSSGAPPPSK((2-[2-(2-Amino-ethoxy)-ethoxyl-acetyl)2-(γ-Glu)-CO-(CH2)12-CO2H)-NH2) [Example 264]	7.12	84.4	> 9.95	75.2
YXEGTXTSDXSIXLDXKAQXEFIXXLIEGGPSSGAPPPSK (Y-Aib-EGT-αMeF(2F)-TSD-OMeY-SI-αMeL-LD-Orn-K((2-[2-(2-Amino-ethoxy)-ethoxy]-acetyl)2-CO-(CH2)12-CO2H)AQ-Aib-EFI-(D-Glu)-αMeY-LIEGGPSSGAPPPSK((2-[2-(2-Amino-ethoxy)-ethoxy]-acetyl)2-CO-(CH2)12-CO2H)-NH2) [Example 267]	0.808	–	> 9.95	8.46
YXEGTXTSDXSIXLDXIAQXKFIXXLIEGGPSSGAPPPSK (Y-Aib-EGT-αMeF(2F)-TSD-OMeY-SI-αMeL-LD-Orn-IAQ-Aib-K((2-[2-(2-Amino-ethoxy)-ethoxy]-acetyl)2-CO-(CH2)12-CO2H)FI-(D-Glu)-αMeY-LIEGGPSSGAPPPSK((2-[2-(2-Amino-ethoxy)-ethoxy]-acetyl)2-CO-(CH2)12-CO2H)-NH2) [Example 268]	5.06	92.3	> 9.95	26.5
YXEGTXTSDXSIXLDXKAQXKFIXXLIEGGPSSGAPPPS (Y-Aib-EGT-αMeF(2F)-TSD-OMeY-SI-αMeL-LD-Orn-K((2-[2-(2-Amino-ethoxy)-ethoxy]-acetyl)2-(γ-Glu)-CO-(CH2)12-CO2H)AQ-Aib-K((2-[2-(2-Amino-ethoxy)-ethoxy]-acetyl)2-(γ-Glu)-CO-(CH2)12-CO2H)FI-(D-Glu)-αMeY-LIEGGPSSGAPPPS-NH2) [Example 259]	2.34	66.4	> 9.95	28.9
YXEGTXTSDXSIXLDXIAQXKFIXXLIKGGPSSGAPPPS (Y-Aib-EGT-αMeF(2F)-TSD-OMeY-SI-αMeL-LD-Orn-IAQ-Aib-K((2-[2-(2-Amino-ethoxy)-ethoxy]-acetyl)2-(γ-Glu)-CO-(CH2)12-CO2H)FI-(D-Glu)-αMeY-LIK((2-[2-(2-Amino-ethoxy)-ethoxy]-acetyl)2-(γ-Glu)-CO-(CH2)12-CO2H)GGPSSGAPPPS-NH2) [Example 263]	5.91	–	> 9.95	56.7
YXEGTXTSDXSIXLDXKAQXEFIXXLIKGGPSSGAPPPS (Y-Aib-EGT-αMeF(2F)-TSD-OMeY-SI-αMeL-LD-Orn-K((2-[2-(2-Amino-ethoxy)-ethoxy]-acetyl)2-(γ-Glu)-CO-(CH2)12-CO2H)AQ-Aib-EFI-(D-Glu)-αMeY-LIK((2-[2-(2-Amino-ethoxy)-ethoxy]-acetyl)2-(γ-Glu)-CO-(CH2)12-CO2H)GGPSSGAPPPS-NH2) [Example 260]	3.27	–	> 9.95	32
YXEGTXTSDXSIXLDXIAQXEFIKXLIKGGPSSGAPPPS (Y-Aib-EGT-αMeF(2F)-TSD-OMeY-SI-αMeL-LD-Orn-IAQ-Aib-EFIK((2-[2-(2-Amino-ethoxy)-ethoxy]-acetyl)2-(γ-Glu)-CO-(CH2)12-CO2H)-αMeY-LIK((2-[2-(2-Amino-ethoxy)-ethoxy]-acetyl)2-(γ-Glu)-CO-(CH2)12-CO2H)GGPSSGAPPPS-NH2) [Example 262]	8.15	79.7	> 9.95	69.8
YXEGTXTSDXSIXLDXKAQXKFIXXLIEGGPSSGAPPPS (Y-Aib-EGT-αMeF(2F)-TSD-OMeY-SI-αMeL-LD-Orn-K((2-[2-(2-Amino-ethoxy)-ethoxy]-acetyl)2-CO-(CH2)12-CO2H)AQ-Aib-K((2-[2-(2-Amino-ethoxy)-ethoxy]-acetyl)2-CO-(CH2)12-CO2H)FI-(D-Glu)-αMeY-LIEGGPSSGAPPPS-NH2 …) [Example 265]	0.775	–	> 9.95	5.14
YXEGTXTSDXSIXLDXKAQXEFIXXLIKGGPSSGAPPPS (Y-Aib-EGT-αMeF(2F)-TSD-OMeY-SI-αMeL-LD-Orn-K((2-[2-(2-Amino-ethoxy)-ethoxy]-acetyl)2-CO-(CH2)12-CO2H)AQ-Aib-EFI-(D-Glu)-αMeY-LIK((2-[2-(2-Amino-ethoxy)-ethoxy]-acetyl)2-CO-(CH2)12-CO2H)GGPSSGAPPPS-NH2 …) [Example 266]	0.575	–	> 9.95	5.83
